{"source": "paper PMC3294125", "experiment_in_all_cases": "kinetics", "key": {"Cys139": {"target": "Cys139 (UniProt position 139, AFPRMCNLSYW)", "settings": "Continuous catalytic turnover; cited from earlier work"}, "Asp26": {"target": "Asp26 (UniProt position 26, FMSTNDKDIGV)", "settings": "Continuous catalytic turnover"}, "Asp132": {"target": "Asp132 (UniProt position 132, HIGAPDMAFPR)", "settings": "Continuous catalytic turnover; cited from earlier work"}, "Asp139": {"target": "Asp139 (UniProt position 139, AFPRMDNLSYW)", "settings": "Continuous catalytic turnover; cited from earlier work"}}}
{"substance": "Cytochrome c oxidase (aa3-type), subunit I N139C-D132N, subunit III-depleted (Rhodobacter sphaeroides; N139C;D132N)", "values": [{"measurement": "pKa", "setting": "Cys139", "result": "8.0 (7.9–8.1)"}]}
{"substance": "Cytochrome c oxidase (aa3-type), subunit I H26D-D132A, subunit III-depleted (Rhodobacter sphaeroides; H26D;D132A)", "values": [{"measurement": "pKa", "setting": "Asp26", "result": "7.0 (6.9–7.1)"}]}
{"substance": "Cytochrome c oxidase (aa3-type), subunit I, in subunit III-depleted enzyme [WT III (−)] (Rhodobacter sphaeroides)", "values": [{"measurement": "pKa", "setting": "Asp132", "result": "7.0–7.3"}]}
{"substance": "Cytochrome c oxidase (aa3-type), subunit I N139D-D132N, subunit III-depleted (Rhodobacter sphaeroides; N139D;D132N)", "values": [{"measurement": "pKa", "setting": "Asp139", "result": "7.7 (7.5–7.9)"}]}
